Tested on: IGF-1
Experiment: Serum IGF-1 levels in cynomolgus monkeys after a single antibody dose
Type: in vivo, cynomolgus monkey
Procedure: Serum samples were analyzed for changes in IGF-1 levels compared to baseline using an R&D Systems™ Quantikine™ human IGF-1 immunoassay kit (cat. #DG100).
To determine if GHR antagonist monoclonal antibodies can affect IGF-1, IGFBP-3, and ALS levels in vivo by inhibiting the function of GHR, the effect of humanized anti-human GHR antibody SS1 was tested in cynomolgus monkeys. A dose-response study was conducted to test for changes in IGF-1, IGFBP-3, and ALS levels following a single dose of SS1. Eight naïve female cynomolgus monkeys were injected intravenously with a single dose of SS1 or negative control human IgG2, in 1×PBS 0.01% Tween™ 20. Two monkeys were dosed with 30 mg/kg SS1, two were dosed with 10 mg/kg SS1, two were dosed with 3 mg/kg SS1, and two were dosed with 30 mg/kg negative control human IgG2Δa on Day 1. Serum samples were taken from all animals at the following timepoints: pre-dose, 24 h, 48 h, 72 h, 120 h, 144 h, 192 h, 240 h, 336 h, 528 h, 696 h. Serum was also taken from the 30 mg/kg SS1 and negative control treated animals at 864 h post-dose.
Six naïve female cynomolgus monkeys were injected either intravenously or subcutaneously with a single dose of […] or negative control human IgG2Δa in 1×PBS 0.01% Tween™ 20. Two monkeys were dosed with 3 mg/kg SS1 intravenously, two were dosed with 3 mg/kg SS1 subcutaneously, and two were dosed with 3 mg/kg negative control human IgG2Δa subcutaneously on Day 1. Serum samples were taken from all animals at the following timepoints: pre-dose, 24 h, 72 h, 120 h, 168 h, 216 h, 264 h, 312 h, 360 h, 408 h, 456 h and 504 h.

B1: SS1: humanized GHR antagonist antibody; VL SEQ ID NO: 7, VH SEQ ID NO: 8; hIgG2Δa heavy chain SEQ ID NO: 134, light chain SEQ ID NO: 135 (antibody)
heavy: EVQLVESGGGLVKPGGSLRLSCAASGFTFSDAWMDWVRQAPGKGLEWVAEIRSKANYHATYYAESVKGRFTISRDDSKNTLYLQMNSLKTEDTAVYYCTLIRDYWGQGTLVTVSSASTKGPSVFPLAPCSRSTSESTAALGCLVKDYFPEPVTVSWNSGALTSGVHTFPAVLQSSGLYSLSSVVTVPSSNFGTQTYTCNVDHKPSNTKVDKTVERKCCVECPPCPAPPVAGPSVFLFPPKPKDTLMISRTPEVTCVVVDVSHEDPEVQFNWYVDGVEVHNAKTKPREEQFNSTFRVVSVLTVVHQDWLNGKEYKCKVSNKGLPSSIEKTISKTKGQPREPQVYTLPPSREEMTKNQVSLTCLVKGFYPSDIAVEWESNGQPENNYKTTPPMLDSDGSFFLYSKLTVDKSRWQQGNVFSCSVMHEALHNHYTQKSLSLSPGK
light: EIVLTQSPGTLSLSPGERATLSCTATSSVSSSYLNWYQQKPGQAPRLLIYSTSNLASGIPDRFSGSGSGTDFTLTISRLEPEDFAVYYCHQYHRSTPTFGGGTKVEIKRTVAAPSVFIFPPSDEQLKSGTASVVCLLNNFYPREAKVQWKVDNALQSGNSQESVTEQDSKDSTYSLSSTLTLSKADYEKHKVYACEVTHQGLSSPVTKSFNRGEC
modifications: Humanized and/or affinity matured antibody sequence
Table 10, cynomolgus monkeys, SS1 3 mg/kg IV single dose, 24 h post-injection
  serum IGF-1 levels (% change from baseline): −43.6 +/− 0.5%
Table 10, cynomolgus monkeys, SS1 3 mg/kg IV single dose, 48 h post-injection
  serum IGF-1 levels (% change from baseline): −66.6 +/− 1.1%
Table 10, cynomolgus monkeys, SS1 3 mg/kg IV single dose, 72 h post-injection
  serum IGF-1 levels (% change from baseline): −67.1 +/− 1.6%
Table 10, cynomolgus monkeys, SS1 3 mg/kg IV single dose, 120 h post-injection
  serum IGF-1 levels (% change from baseline): −76.2 +/− 7.9%
Table 10, cynomolgus monkeys, SS1 3 mg/kg IV single dose, 144 h post-injection
  serum IGF-1 levels (% change from baseline): −68.4 +/− 1.1%
Table 10, cynomolgus monkeys, SS1 3 mg/kg IV single dose, 192 h post-injection
  serum IGF-1 levels (% change from baseline): −65.2 +/− 3.0%
Table 10, cynomolgus monkeys, SS1 3 mg/kg IV single dose, 240 h post-injection
  serum IGF-1 levels (% change from baseline): −34.5 +/− 17.8%
Table 10, cynomolgus monkeys, SS1 3 mg/kg IV single dose, 336 h post-injection
  serum IGF-1 levels (% change from baseline): 64.2 +/− 0.6%
Table 10, cynomolgus monkeys, SS1 3 mg/kg IV single dose, 528 h post-injection
  serum IGF-1 levels (% change from baseline): 85.1 +/− 46.0%
Table 10, cynomolgus monkeys, SS1 3 mg/kg IV single dose, 696 h post-injection
  serum IGF-1 levels (% change from baseline): 49.2 +/− 11.3%
Table 10, cynomolgus monkeys, SS1 10 mg/kg IV single dose, 24 h post-injection
  serum IGF-1 levels (% change from baseline): −43.4 +/− 2.2%
Table 10, cynomolgus monkeys, SS1 10 mg/kg IV single dose, 48 h post-injection
  serum IGF-1 levels (% change from baseline): −62.6 +/− 5.5%
Table 10, cynomolgus monkeys, SS1 10 mg/kg IV single dose, 72 h post-injection
  serum IGF-1 levels (% change from baseline): −67.1 +/− 4.7%
Table 10, cynomolgus monkeys, SS1 10 mg/kg IV single dose, 120 h post-injection
  serum IGF-1 levels (% change from baseline): −73.5 +/− 2.1%
Table 10, cynomolgus monkeys, SS1 10 mg/kg IV single dose, 144 h post-injection
  serum IGF-1 levels (% change from baseline): −76.0 +/− 0.1%
Table 10, cynomolgus monkeys, SS1 10 mg/kg IV single dose, 192 h post-injection
  serum IGF-1 levels (% change from baseline): −74.0 +/− 0.2%
Table 10, cynomolgus monkeys, SS1 10 mg/kg IV single dose, 240 h post-injection
  serum IGF-1 levels (% change from baseline): −70.9 +/− 1.9%
Table 10, cynomolgus monkeys, SS1 10 mg/kg IV single dose, 336 h post-injection
  serum IGF-1 levels (% change from baseline): −61.4 +/− 0.6%
Table 10, cynomolgus monkeys, SS1 10 mg/kg IV single dose, 528 h post-injection
  serum IGF-1 levels (% change from baseline): 25.7 +/− 11.8%
Table 10, cynomolgus monkeys, SS1 10 mg/kg IV single dose, 696 h post-injection
  serum IGF-1 levels (% change from baseline): 31.7 +/− 15.2%
Table 10, cynomolgus monkeys, SS1 30 mg/kg IV single dose, 24 h post-injection
  serum IGF-1 levels (% change from baseline): −43.2 +/− 3.0%
Table 10, cynomolgus monkeys, SS1 30 mg/kg IV single dose, 48 h post-injection
  serum IGF-1 levels (% change from baseline): −63.2 +/− 5.0%
Table 10, cynomolgus monkeys, SS1 30 mg/kg IV single dose, 72 h post-injection
  serum IGF-1 levels (% change from baseline): −68.5 +/− 5.8%
Table 10, cynomolgus monkeys, SS1 30 mg/kg IV single dose, 120 h post-injection
  serum IGF-1 levels (% change from baseline): −75.2 +/− 5.2%
Table 10, cynomolgus monkeys, SS1 30 mg/kg IV single dose, 144 h post-injection
  serum IGF-1 levels (% change from baseline): −77.5 +/− 5.6%
Table 10, cynomolgus monkeys, SS1 30 mg/kg IV single dose, 192 h post-injection
  serum IGF-1 levels (% change from baseline): −77.2 +/− 3.3%
Table 10, cynomolgus monkeys, SS1 30 mg/kg IV single dose, 240 h post-injection
  serum IGF-1 levels (% change from baseline): −74.8 +/− 3.4%
Table 10, cynomolgus monkeys, SS1 30 mg/kg IV single dose, 336 h post-injection
  serum IGF-1 levels (% change from baseline): −73.3 +/− 0.7%
Table 10, cynomolgus monkeys, SS1 30 mg/kg IV single dose, 528 h post-injection
  serum IGF-1 levels (% change from baseline): −73.0 +/− 0.9%
Table 10, cynomolgus monkeys, SS1 30 mg/kg IV single dose, 696 h post-injection
  serum IGF-1 levels (% change from baseline): −70.4 +/− 1.1%
Table 10, cynomolgus monkeys, SS1 30 mg/kg IV single dose, 864 h post-injection
  serum IGF-1 levels (% change from baseline): −8.8 +/− 2.9%
Table 13, cynomolgus monkeys, SS1 3 mg/kg IV single dose, 24 hour post-injection
  serum IGF-1 levels (% change from baseline): −35 +/− 4.4%
Table 13, cynomolgus monkeys, SS1 3 mg/kg IV single dose, 72 hour post-injection
  serum IGF-1 levels (% change from baseline): −64.8 +/− 2.7%
Table 13, cynomolgus monkeys, SS1 3 mg/kg IV single dose, 120 hour post-injection
  serum IGF-1 levels (% change from baseline): −71.6 +/− 1.8%
Table 13, cynomolgus monkeys, SS1 3 mg/kg IV single dose, 168 hour post-injection
  serum IGF-1 levels (% change from baseline): −70.2 +/− 2.7%
Table 13, cynomolgus monkeys, SS1 3 mg/kg IV single dose, 216 hour post-injection
  serum IGF-1 levels (% change from baseline): −64.5%
Table 13, cynomolgus monkeys, SS1 3 mg/kg IV single dose, 264 hour post-injection
  serum IGF-1 levels (% change from baseline): −36.0%
Table 13, cynomolgus monkeys, SS1 3 mg/kg IV single dose, 312 hour post-injection
  serum IGF-1 levels (% change from baseline): −30.3%
Table 13, cynomolgus monkeys, SS1 3 mg/kg IV single dose, 360 hour post-injection
  serum IGF-1 levels (% change from baseline): −27.8%
Table 13, cynomolgus monkeys, SS1 3 mg/kg SQ single dose, 24 hour post-injection
  serum IGF-1 levels (% change from baseline): −46.7 +/− 9.9%
Table 13, cynomolgus monkeys, SS1 3 mg/kg SQ single dose, 72 hour post-injection
  serum IGF-1 levels (% change from baseline): −62.5 +/− 2.5%
Table 13, cynomolgus monkeys, SS1 3 mg/kg SQ single dose, 120 hour post-injection
  serum IGF-1 levels (% change from baseline): −68.7 +/− 2.8%
Table 13, cynomolgus monkeys, SS1 3 mg/kg SQ single dose, 168 hour post-injection
  serum IGF-1 levels (% change from baseline): −65.6 +/− 4.1%
Table 13, cynomolgus monkeys, SS1 3 mg/kg SQ single dose, 216 hour post-injection
  serum IGF-1 levels (% change from baseline): −60.7%
Table 13, cynomolgus monkeys, SS1 3 mg/kg SQ single dose, 264 hour post-injection
  serum IGF-1 levels (% change from baseline): −40.9%
Table 13, cynomolgus monkeys, SS1 3 mg/kg SQ single dose, 312 hour post-injection
  serum IGF-1 levels (% change from baseline): −15.3%
Table 13, cynomolgus monkeys, SS1 3 mg/kg SQ single dose, 360 hour post-injection
  serum IGF-1 levels (% change from baseline): −4.2%
Cynomolgus monkeys, 3 mg/kg SS1 either SQ or IV
  time until which serum IGF-1 remained below 60% baseline levels: about 216 hour
Cynomolgus monkeys, SS1 3 mg/kg IV single dose
  time until which serum IGF-1 remained substantially lower than baseline: 240 h
Cynomolgus monkeys, SS1 10 mg/kg IV single dose
  time until which serum IGF-1 remained substantially lower than baseline: 336 h
Cynomolgus monkeys, SS1 30 mg/kg IV single dose
  time until which serum IGF-1 remained substantially lower than baseline: 696 h
Cynomolgus monkeys, single IV dose of 3, 10 or 30 mg/kg SS1, by 120 hours
  serum IGF-1 decrease below baseline levels: about 75%
Cynomolgus monkeys, single dose 3 mg/kg SS1 subcutaneous (SC) or intravenous (IV), by 72 hours
  serum IGF-1 decrease below control: about 63%
Single IV dose, dose-response
  effect on serum IGF-1 levels in cynomolgus monkeys: dose dependently reduces serum IGF-1 levels
